In patent US20040096852A1, “Mixed fibrils” (priority 2000, published 2004):
Blank lines part the entries; values can stand above or below the molecule they belong to. Ends that are not written are not given here. * marks the point of attachment. Dansyl = CN(C)c1cccc2c(S(=O)(=O)*)cccc12

Experiments:
[1] = Solubility of peptide under labeling conditions; type: physicochemical
Experimental: TTR10-19 labeling with fluorescein. The N-terminal cysteine residue of TTR10-19 was the target for labeling by the thiol-reactive fluorophore fluorescein-5-maleimide (F5M; Molecular Probes, Eugene, Oreg.). TTR10-19 was resuspended at 1 mg/ml in H2O, and the cysteine residue reduced by the addition of a 10-fold molar excess of tris-(2-carboxyethyl) phosphine (TCEP; Molecular Probes, Eugene, Oreg.) and incubation for 1 h at room temperature. F5M in DMSO was added to the peptide solution to give a 10-fold molar excess of fluorophore over peptide in a final concentration of 10% DMSO. Under these conditions TTR10-19 was fully soluble. The mixture was incubated overnight at 4° C. to ensure maximum labeling. The labeling mixture was then applied to a disposable SepPak C-18 reverse-phase chromatography column (Waters, Milford, Mass.) and washed with H2O/CH3CN (90:10 v/v). TCEP and unreacted label eluted in the wash. The peptide was then eluted from the column with H2O/CH3CN (40:60 v/v), and a mixture of labeled and unlabelled peptide was detected by MALDI-TOF mass spectrometry. […]
TTR105-115 labeling with dansyl chloride. […] The peptide was then eluted from the column with H2O/CH3CN (50:50 v/v), and a mixture of labeled and unlabelled peptide was detected by MALDI-TOF mass spectrometry. […]

[2] = pH 2.5
Description: Where the proteins forming the fibrils are unrelated the kinetics of fibril formation are likely to be different.

[3] = biological target: T1, TTR105-115 (human); assay: fluorescence anisotropy of labeled peptide co-assembled into fibrils (free peptide 0.03)
T1 construct: Unlabelled synthetic peptide, present as amyloid fibrils in the assays
T1 peptide: YTIAALLSPYS
Experimental: (§1) All anisotropy measurements were monitored over 10 sec to rule out photobleaching phenomena and then averaged.
(§2) Panel a: F5M-TTR₁₀₋₁₉ incorporated into TTR₁₀₋₁₉ fibrils (dashed line) is compared with F5M-TTR₁₀₋₁₉ (solid line) in 20 mM sodium phosphate buffer, pH 1.0 at a final labeled peptide concentration of 0.3 μM. Panel b: dansyl-TTR₁₀₅₋₁₁₅ incorporated into TTR₁₀₅₋₁₁₅ fibrils (dashed line) is compared with dansyl-TTR₁₀₅₋₁₁₅ (solid line) in water at a final labeled peptide concentration of 0.9 μM. The fluorescence spectra have been normalised. […] Fibrils were pelleted by centrifugation at 9500 g for 15 min, the pellet resuspended in H₂O pH 2 and deposited on a glass slide and imaged using fluorescence light microscopy. […] TTR₁₀₋₁₉ containing 1% (w/w) dansyl-TTR₁₀₅₋₁₁₅ was resuspended at a final total peptide concentration of 10 mg/ml in 10% CH₃CN adjusted to pH 2 with TFA. The sample was incubated at 37° C. for 10 days after which time the CD spectrum indicated the formation of significant O-sheet structure, and fibrils were observed by EM.

[4] = biological target: T2, TTR10-19 (human); assay: as above
T2 construct: Unlabelled synthetic peptide, present as amyloid fibrils in the assays; also called TTR10-19 fibrils
T2 peptide: CPLMVKVLDA
Experimental: as §1, §2

[5] = biological target: T3, Bovine insulin (bovine, UniProt P01317 85-105; P01317 25-54); assay: as above
T3 construct: mature; Bought protein, assembled into amyloid fibrils at low pH and high temperature; also called insulin fibrils
Experimental: as §1, §2

[6] = biological target: T1, TTR105-115; assay: fluorescence anisotropy of labeled peptide co-assembled into fibrils (free peptide 0.02)
[7] = biological target: T2, TTR10-19; assay: as above
[8] = biological target: T3, Bovine insulin; assay: as above

T3 sequence (P01317 85-105 limits assumed, chain 1 of 2): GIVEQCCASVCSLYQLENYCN
T3 sequence (P01317 25-54 limits assumed, chain 2 of 2): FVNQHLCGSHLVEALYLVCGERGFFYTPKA

- solubility ([1]; 1 mg/ml in H2O/CH3CN (80:20 v/v), dansyl chloride, 10% DMSO, pH 9.0): fully soluble
- time remaining soluble [2]: 48 h
Molecule: YTIAALLSPYS [TTR105-115]

- fluorescence anisotropy on incorporation into fibrils [6]: 0.13
- fluorescence anisotropy on incorporation into fibrils [7]: 0.16
- fluorescence anisotropy on incorporation into fibrils [8]: 0.19
B2: dansyl-TTR105-115 (peptide)
peptide: Dansyl-YTIAALLSPYS
notes: Synthetic peptide derived from human transthyretin

Second part, the molecule before the results:

Molecule: CPLMVKVLDA [TTR10-19]
- solubility ([1]; 1 mg/ml in H2O, TCEP, F5M, final 10% DMSO): fully soluble
- time remaining soluble [2]: 48 h

B1: F5M-TTR10-19 (peptide)
peptide: C(fluorescein‑5‑maleimide)PLMVKVLDA
notes: Synthetic peptide derived from human transthyretin; also called fluorescein-5-maleimide labeled TTR10-19
- fluorescence anisotropy on incorporation into fibrils [3]: 0.22
- fluorescence anisotropy on incorporation into fibrils [4]: 0.17
- fluorescence anisotropy on incorporation into fibrils [5]: 0.16
